Laboratory results from article PMC2199365.

Biological target: nascent 77FtsQTAG27 (E. coli) (UniProt P06136)
Assay: cross-linking

Chain of UniProt P06136 (P06136 1-77): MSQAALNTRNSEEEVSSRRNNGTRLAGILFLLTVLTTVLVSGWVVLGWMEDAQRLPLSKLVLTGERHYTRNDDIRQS

concentration of SRP at which cross-linking saturated: 0.3 µM
B1: purified signal recognition particle (SRP: Ffh and 4.5S RNA) (complex)
chain: MFDNLTDRLSRTLRNISGRGRLTEDNVKDTLREVRMALLEADVALPVVREFINRVKEKAVGHEVNKSLTPGQEFVKIVRNELVAAMGEENQTLNLAAQPPAVVLMAGLQGAGKTTSVGKLGKFLREKHKKKVLVVSADVYRPAAIKQLETLAEQVGVDFFPSDVGQKPVDIVNAALKEAKLKFYDVLLVDTAGRLHVDEAMMDEIKQVHASINPVETLFVVDAMTGQDAANTAKAFNEALPLTGVVLTKVDGDARGGAALSIRHITGKPIKFLGVGEKTEALEPFHPDRIASRILGMGDVLSLIEDIESKVDRAQAEKLASKLKKGDGFDLNDFLEQLRQMKNMGGMASLMGKLPGMGQIPDNVKSQMDDKVLVRMEAIINSMTMKERAKPEIIKGSRKRRIAAGCGMQVQDVNRLLKQFDDMQRMMKKMKKGGMAKMMRSMKGMMPPGFPGR
